Measured values as given in PMC5473870, “Crystal structure of the DNA-binding domain of Myelin-gene Regulatory Factor” (Scientific Reports, 2017).

B1: MyRF DBD after auto-cleavage (351–586 plus N-terminal his tag and linker) (domain or fragment, mouse, UniProt Q3UR85-3 351-586, looked up)
chain: IKWQPHQQNKWATLYDANYKELPMLTYRVDADKGFNFSVGDDAFVCQKKNHFQVTVYIGMLGEPKYVKTPEGLKPLDCFYLKLHGVKLEALNQSINIEQSQSDRSKRPFNPVTVNLPPEQVTKVTVGRLHFSETTANNMRKKGKPNPDQRYFMLVVALQAHAQNQNYTLAAQISERIIVRASNPGQFESDSDVLWQRAQLPDTVFHHGRVGINTDRPDEALVVHGNVKVMGSLMHP
notes: Myelin-gene Regulatory Factor (MyRF), mouse, NP_001028653.1; N-terminal product (351-586) of auto-cleavage of the expressed fragment 351-717 (DBD and ICA); also called wild type MyRF DBD; source: E. coli BL21 (DE3), expressed as fragment 351-717, auto-cleaved, purified (nickel-sepharose); not shown: His6, N-terminal, kept
B2: MyRF DBD core (proteolytically resistant, after limited proteolysis with trypsin) (domain or fragment, mouse)
chain: IKWQPHQQNKWATLYDANYKELPMLTYRVDADKGFNFSVGDDAFVCQKKNHFQVTVYIGMLGEPKYVKTPEGLKPLDCFYLKLHGVKLEALNQSINIEQSQSDRSKRPFNPVTVNLPPEQVTKVTVGRLHFSETTANNMRKKGKPNPDQRYFMLVVALQAHAQNQNYTLAAQISERIIVRAS
modifications: selenomethionyl substituted in the crystals (4 Se per molecule)
notes: Myelin-gene Regulatory Factor (MyRF), mouse, NP_001028653.1; trypsin-resistant core of about 24 kD, 210 residues, made from the expressed fragment 351-717; PDB 5H5P holds the crystallised chain; also called MyRF DBD core only; MyRF DBD (crystal structure); source: E. coli BL21 (DE3), nickel-sepharose, limited proteolysis with trypsin, purified (Superdex-75)

Molecular target: the molecule itself
Experiment: SEC; gel filtration on Superdex-200, 20 mM Tris-HCl pH 7.4, 50 mM NaCl, 5% glycerol; calibrated with ferritin, BSA and ovalbumin

Protein	stoichiometry N
B1	3
B2	3
